We go through one molecule from paper PMC2239301.

In the assay the target is Smy2p fused to the LexA-DNA binding domain (S. cerevisiae). Nature of the assay: two-hybrid.
Sequence of Smy2p fused to the LexA-DNA binding domain (S. cerevisiae) (P32909 whole entry, the tested form may be a part): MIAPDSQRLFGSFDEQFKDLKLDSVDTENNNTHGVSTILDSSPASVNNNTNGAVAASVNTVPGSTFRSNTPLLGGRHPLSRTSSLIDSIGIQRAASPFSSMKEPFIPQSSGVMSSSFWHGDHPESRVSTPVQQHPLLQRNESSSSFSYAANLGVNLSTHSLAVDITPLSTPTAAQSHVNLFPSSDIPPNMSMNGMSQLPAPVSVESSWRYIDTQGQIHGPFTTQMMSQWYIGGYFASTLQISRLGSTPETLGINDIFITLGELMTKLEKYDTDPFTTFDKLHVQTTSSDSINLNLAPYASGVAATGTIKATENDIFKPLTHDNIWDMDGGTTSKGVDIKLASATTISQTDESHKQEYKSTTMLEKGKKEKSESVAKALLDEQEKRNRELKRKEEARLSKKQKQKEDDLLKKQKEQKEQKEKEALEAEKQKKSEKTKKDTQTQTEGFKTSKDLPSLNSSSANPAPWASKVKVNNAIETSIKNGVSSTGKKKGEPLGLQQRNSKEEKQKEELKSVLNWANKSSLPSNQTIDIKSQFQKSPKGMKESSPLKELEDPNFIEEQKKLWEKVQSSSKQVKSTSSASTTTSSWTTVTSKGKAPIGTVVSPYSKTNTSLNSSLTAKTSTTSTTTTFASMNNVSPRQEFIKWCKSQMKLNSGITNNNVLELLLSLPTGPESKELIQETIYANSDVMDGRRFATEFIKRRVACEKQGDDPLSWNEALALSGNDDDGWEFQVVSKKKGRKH

B1: Sec23p connected to the B42 acidic activation domain (natural protein)
chain: MDFETNEDINGVRFTWNVFPSTRSDANSNVVPVGCLYTPLKEYDELNVAPYNPVVCSGPHCKSILNPYCVIDPRNSSWSCPICNSRNHLPPQYTNLSQENMPLELQSTTIEYITNKPVTVPPIFFFVVDLTSETENLDSLKESIITSLSLLPPNALIGLITYGNVVQLHDLSSETIDRCNVFRGDREYQLEALTEMLTGQKPTGPGGAASHLPNAMNKVTPFSLNRFFLPLEQVEFKLNQLLENLSPDQWSVPAGHRPLRATGSALNIASLLLQGCYKNIPARIILFASGPGTVAPGLIVNSELKDPLRSHHDIDSDHAQHYKKACKFYNQIAQRVAANGHTVDIFAGCYDQIGMSEMKQLTDSTGGVLLLTDAFSTAIFKQSYLRLFAKDEEGYLKMAFNGNMAVKTSKDLKVQGLIGHASAVKKTDANNISESEIGIGATSTWKMASLSPYHSYAIFFEIANTAANSNPMMSAPGSADRPHLAYTQFITTYQHSSGTNRIRVTTVANQLLPFGTPAIAASFDQEAAAVLMARIAVHKAETDDGADVIRWLDRTLIKLCQKYADYNKDDPQSFRLAPNFSLYPQFTYYLRRSQFLSVFNNSPDETAFYRHIFTREDTTNSLIMIQPTLTSFSMEDDPQPVLLDSISVKPNTILLLDTFFFILIYHGEQIAQWRKAGYQDDPQYADFKALLEEPKLEAAELLVDRFPLPRFIDTEAGGSQARFLLSKLNPSDNYQDMARGGSTIVLTDDVSLQNFMTHLQQVAVSGQA
B1 came in with a β-galactosidase activity of 26 units.
